B1: F3.23.10 (antibody, human IgG1, V domains shown)
VH: EFQLQQSGPELVKPGASVKISCKASDYSFTDYNMNWVKQSNGASLEWIGIINPNFGSTSYNQKFKGKATLTVDQSSSTAFMQLNSLTSEDSAVYYCARSEYYGSSGFAYWGQGTLVTVSA
VL: DVVVTQTPLSLPVSFGDQVSISCRSSQSLVNSYGNTYLSWYLHKPGQSPQLLIYGISNRFSGVPDRFSGSGSGTDFTLKITTIKPEDLGMYYCLQGTHQPWTFGGGTKLEIK
B2: F4.180.1 (antibody, human IgG1, V domains shown)
VH: EVQLQQSAPELVKPGASVKMSCKTSGYTFTENIIHWVKQTHGKSLEWIGGINPDNGGTSYHQKFKGRTTLTIDKSSSTAYMELRSLTSDDSAVFFCARQAPLYWYFDIWGAGTTVTVSS
VL: DIVLTQSPASLAVSLGQRATISCRASESVDSYGNSLMHWFQQKPGQPPRLLIYRASNLESGIPARFSGSGSRTDFTLTITPVEADDVATYYCQQSNEDPWTFGGGTKLEIK

Biological target: cynomolgus monkey CD19 on peripheral blood B cells (cynomolgus monkey (Macaca fascicularis))
Experiment: FACS, cynomolgus PBMC, CD20+ B cells

Binder | Proportion of chimeric antibody positive cells to B cells (%) at 1 nM [%] | Proportion of chimeric antibody positive cells to B cells (%) at 10 nM [%] | Proportion of chimeric antibody positive cells to B cells (%) at 100 nM [%]
B1 | 2 | 1 | 12
B2 | 2 | 3 | 9

Source: patent US20250042994A1
